# Experimental data published in article PMC9482650, “Quantitative fragmentomics allow affinity mapping of interactomes” (Nature Communications, 2022).
# T1: DLG3_1, Q92796
# T1 sequence (Q92796 125-227, limits assumed, looked up): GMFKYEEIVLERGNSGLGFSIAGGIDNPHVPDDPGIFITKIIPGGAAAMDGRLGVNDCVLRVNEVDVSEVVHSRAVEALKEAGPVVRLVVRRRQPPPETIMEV
# T2: SYNJ2BP, P57105
# T2 sequence (P57105 8-110, limits assumed, looked up): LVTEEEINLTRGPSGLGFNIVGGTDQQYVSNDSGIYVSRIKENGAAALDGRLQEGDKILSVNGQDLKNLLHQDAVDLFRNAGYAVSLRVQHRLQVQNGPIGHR
# T3: DLG3_3, Q92796
# T3 sequence (Q92796 374-475, limits assumed, looked up): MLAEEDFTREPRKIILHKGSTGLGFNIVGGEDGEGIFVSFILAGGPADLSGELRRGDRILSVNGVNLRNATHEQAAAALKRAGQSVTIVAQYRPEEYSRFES
# T4: NHERF3_1, Q5T2W1
# T4 sequence (Q5T2W1 4-100, limits assumed, looked up): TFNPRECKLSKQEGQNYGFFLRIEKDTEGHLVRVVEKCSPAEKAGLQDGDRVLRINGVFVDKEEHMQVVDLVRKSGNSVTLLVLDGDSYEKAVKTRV
# T5: RHPN1, Q8TCX5
# T5 sequence (Q8TCX5 508-602, limits assumed, looked up): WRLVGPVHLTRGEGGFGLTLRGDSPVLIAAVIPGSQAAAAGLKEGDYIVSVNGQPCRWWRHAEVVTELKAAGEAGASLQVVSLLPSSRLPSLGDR
# T6: TIAM2, Q8IVF5
# T6 sequence (Q8IVF5 885-986, limits assumed, looked up): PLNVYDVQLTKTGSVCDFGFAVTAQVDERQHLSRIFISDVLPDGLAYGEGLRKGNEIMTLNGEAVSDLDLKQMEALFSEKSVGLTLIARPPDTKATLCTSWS
# T7: MPP2, Q14168
# T7 sequence (Q14168 180-250, limits assumed, looked up): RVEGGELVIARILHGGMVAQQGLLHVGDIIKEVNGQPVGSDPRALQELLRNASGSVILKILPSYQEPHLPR
# T8: GRIP1_3, Q9Y3R0
# T8 sequence (Q9Y3R0 247-346, limits assumed, looked up): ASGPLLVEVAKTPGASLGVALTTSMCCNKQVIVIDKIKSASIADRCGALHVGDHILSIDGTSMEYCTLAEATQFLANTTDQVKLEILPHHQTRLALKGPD
# T9: GRIP1_5, Q9Y3R0
# T9 sequence (Q9Y3R0 568-668, limits assumed, looked up): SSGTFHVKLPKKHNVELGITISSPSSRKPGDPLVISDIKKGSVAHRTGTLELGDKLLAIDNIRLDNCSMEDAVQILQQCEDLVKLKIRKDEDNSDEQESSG
# T10: LNX2_2, Q8N448
# T10 sequence (Q8N448 334-432, limits assumed, looked up): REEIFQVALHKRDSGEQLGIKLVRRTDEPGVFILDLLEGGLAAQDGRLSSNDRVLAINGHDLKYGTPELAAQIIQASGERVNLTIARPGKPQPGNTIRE
# T11: APBA1_2, Q02410
# T11 sequence (Q02410 742-832, limits assumed, looked up): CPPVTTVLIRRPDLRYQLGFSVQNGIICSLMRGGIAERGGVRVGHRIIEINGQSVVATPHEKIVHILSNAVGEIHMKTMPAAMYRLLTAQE
# T12: APBA1_1, Q02410
# T12 sequence (Q02410 651-752, limits assumed, looked up): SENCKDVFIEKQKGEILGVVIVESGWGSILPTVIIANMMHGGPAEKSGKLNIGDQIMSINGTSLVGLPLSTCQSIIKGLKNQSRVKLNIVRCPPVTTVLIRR
# B1: DGKH, Q86XP1 (peptide)
# chain: LGRSTPQSEV
# B2: BANF1, O75531 (peptide)
# chain: CLREWCDAFL
# Biological target: T1, DLG3_1, Q92796
# Assay: holdup assay
# Design: key: below the threshold = too weak to quantify, mostly under pKd 3.1 to 4
# Conditions: plain residues with an end cap or a label only (N-terminal biotin on a linker: ado-ado)
row,Binder,pKd
1,B1,below the threshold
2,B2,below the threshold

# Biological target: MAGI1_1, Q96QZ7
# Assay: holdup assay
# Design: key: below the threshold = too weak to quantify, mostly under pKd 3.1 to 4
# Conditions: plain residues with an end cap or a label only (N-terminal biotin on a linker: ado-ado)
# Chain of MAGI1_1, Q96QZ7 (Q96QZ7 1-106): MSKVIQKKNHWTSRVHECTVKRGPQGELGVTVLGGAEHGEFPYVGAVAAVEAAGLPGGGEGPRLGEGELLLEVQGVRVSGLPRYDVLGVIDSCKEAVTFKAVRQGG
row,Binder,pKd
1,B1,below the threshold
2,B2,below the threshold

# Biological target: T2, SYNJ2BP, P57105
# Assay: holdup assay
# Design: key: below the threshold = too weak to quantify, mostly under pKd 3.1 to 4
# Conditions: plain residues with an end cap or a label only (N-terminal biotin on a linker: ado-ado)
row,Binder,pKd
1,B1,4.49
2,B2,below the threshold

# Biological target: T3, DLG3_3, Q92796
# Assay: holdup assay
# Design: key: below the threshold = too weak to quantify, mostly under pKd 3.1 to 4
# Conditions: plain residues with an end cap or a label only (N-terminal biotin on a linker: ado-ado)
row,Binder,pKd
1,B1,below the threshold
2,B2,below the threshold

# Biological target: PICK1, Q9NRD5
# Assay: holdup assay
# Design: key: below the threshold = too weak to quantify, mostly under pKd 3.1 to 4
# Conditions: plain residues with an end cap or a label only (N-terminal biotin on a linker: ado-ado)
# Chain of PICK1, Q9NRD5 (Q9NRD5 17-115): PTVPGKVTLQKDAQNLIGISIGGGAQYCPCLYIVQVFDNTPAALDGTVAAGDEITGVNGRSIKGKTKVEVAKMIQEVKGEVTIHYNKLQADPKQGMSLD
row,Binder,pKd
1,B1,below the threshold
2,B2,below the threshold

# Biological target: PDLIM1, O00151
# Assay: holdup assay
# Design: key: below the threshold = too weak to quantify, mostly under pKd 3.1 to 4
# Conditions: plain residues with an end cap or a label only (N-terminal biotin on a linker: ado-ado)
# Chain of PDLIM1, O00151 (O00151 1-87): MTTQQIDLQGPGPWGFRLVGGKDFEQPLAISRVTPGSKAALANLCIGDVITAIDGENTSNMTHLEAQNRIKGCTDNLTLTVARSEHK
row,Binder,pKd
1,B1,below the threshold
2,B2,below the threshold

# Biological target: FRMPD2_3, Q68DX3
# Assay: holdup assay
# Design: key: below the threshold = too weak to quantify, mostly under pKd 3.1 to 4
# Conditions: plain residues with an end cap or a label only (N-terminal biotin on a linker: ado-ado)
# Chain of FRMPD2_3, Q68DX3 (Q68DX3 1073-1166): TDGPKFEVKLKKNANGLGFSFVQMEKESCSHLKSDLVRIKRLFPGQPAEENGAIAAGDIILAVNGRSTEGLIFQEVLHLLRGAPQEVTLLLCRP
row,Binder,pKd
1,B1,below the threshold
2,B2,below the threshold

# Biological target: NOS1, P29475
# Assay: holdup assay
# Design: key: below the threshold = too weak to quantify, mostly under pKd 3.1 to 4
# Conditions: plain residues with an end cap or a label only (N-terminal biotin on a linker: ado-ado)
# Chain of NOS1, P29475 (P29475 9-101): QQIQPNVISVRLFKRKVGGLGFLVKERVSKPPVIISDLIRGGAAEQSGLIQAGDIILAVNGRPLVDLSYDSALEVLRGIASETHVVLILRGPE
row,Binder,pKd
1,B1,below the threshold
2,B2,below the threshold

# Biological target: Inadl_8, Q8NI35
# Assay: holdup assay
# Design: key: below the threshold = too weak to quantify, mostly under pKd 3.1 to 4
# Conditions: plain residues with an end cap or a label only (N-terminal biotin on a linker: ado-ado)
# Chain of Inadl_8, Q8NI35 (Q8NI35 1425-1530): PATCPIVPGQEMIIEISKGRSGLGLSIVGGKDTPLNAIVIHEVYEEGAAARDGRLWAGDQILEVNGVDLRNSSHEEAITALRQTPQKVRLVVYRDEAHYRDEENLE
row,Binder,pKd
1,B1,3.98
2,B2,below the threshold

# Biological target: T4, NHERF3_1, Q5T2W1
# Assay: holdup assay
# Design: key: below the threshold = too weak to quantify, mostly under pKd 3.1 to 4
# Conditions: plain residues with an end cap or a label only (N-terminal biotin on a linker: ado-ado)
row,Binder,pKd
1,B1,below the threshold
2,B2,4.78

# Biological target: T5, RHPN1, Q8TCX5
# Assay: holdup assay
# Design: key: below the threshold = too weak to quantify, mostly under pKd 3.1 to 4
# Conditions: plain residues with an end cap or a label only (N-terminal biotin on a linker: ado-ado)
row,Binder,pKd
1,B1,4.49
2,B2,below the threshold

# Biological target: T6, TIAM2, Q8IVF5
# Assay: holdup assay
# Design: key: below the threshold = too weak to quantify, mostly under pKd 3.1 to 4
# Conditions: plain residues with an end cap or a label only (N-terminal biotin on a linker: ado-ado)
row,Binder,pKd
1,B1,below the threshold
2,B2,4.05

# Biological target: GRIP2_4, Q9C0E4
# Assay: holdup assay
# Design: key: below the threshold = too weak to quantify, mostly under pKd 3.1 to 4
# Conditions: plain residues with an end cap or a label only (N-terminal biotin on a linker: ado-ado)
# Chain of GRIP2_4, Q9C0E4 (Q9C0E4 446-548): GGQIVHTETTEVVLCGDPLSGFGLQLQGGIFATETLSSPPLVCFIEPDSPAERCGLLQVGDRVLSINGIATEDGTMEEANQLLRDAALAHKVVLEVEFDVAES
row,Binder,pKd
1,B1,below the threshold
2,B2,below the threshold

# Biological target: IL16_3, Q14005
# Assay: holdup assay
# Design: key: below the threshold = too weak to quantify, mostly under pKd 3.1 to 4
# Conditions: plain residues with an end cap or a label only (N-terminal biotin on a linker: ado-ado)
# Chain of IL16_3, Q14005 (Q14005 1107-1207): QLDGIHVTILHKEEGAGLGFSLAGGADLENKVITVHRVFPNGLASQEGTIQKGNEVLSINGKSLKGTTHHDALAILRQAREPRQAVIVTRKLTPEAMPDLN
row,Binder,pKd
1,B1,below the threshold
2,B2,below the threshold

# Biological target: GRID2IP_2, A4D2P6
# Assay: holdup assay
# Design: key: below the threshold = too weak to quantify, mostly under pKd 3.1 to 4
# Conditions: plain residues with an end cap or a label only (N-terminal biotin on a linker: ado-ado)
# Chain of GRID2IP_2, A4D2P6 (A4D2P6 272-370): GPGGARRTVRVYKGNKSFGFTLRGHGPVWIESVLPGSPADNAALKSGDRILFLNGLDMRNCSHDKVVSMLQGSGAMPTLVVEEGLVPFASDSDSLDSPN
row,Binder,pKd
1,B1,4.16
2,B2,below the threshold

# Biological target: T7, MPP2, Q14168
# Assay: holdup assay
# Design: key: below the threshold = too weak to quantify, mostly under pKd 3.1 to 4
# Conditions: plain residues with an end cap or a label only (N-terminal biotin on a linker: ado-ado)
row,Binder,pKd
1,B1,below the threshold
2,B2,below the threshold

# Biological target: T8, GRIP1_3, Q9Y3R0
# Assay: holdup assay
# Design: key: below the threshold = too weak to quantify, mostly under pKd 3.1 to 4
# Conditions: plain residues with an end cap or a label only (N-terminal biotin on a linker: ado-ado)
row,Binder,pKd
1,B1,below the threshold
2,B2,below the threshold

# Biological target: T9, GRIP1_5, Q9Y3R0
# Assay: holdup assay
# Design: key: below the threshold = too weak to quantify, mostly under pKd 3.1 to 4
# Conditions: plain residues with an end cap or a label only (N-terminal biotin on a linker: ado-ado)
row,Binder,pKd
1,B1,below the threshold
2,B2,below the threshold

# Biological target: GRIP2_5, Q9C0E4
# Assay: holdup assay
# Design: key: below the threshold = too weak to quantify, mostly under pKd 3.1 to 4
# Conditions: plain residues with an end cap or a label only (N-terminal biotin on a linker: ado-ado)
# Chain of GRIP2_5, Q9C0E4 (Q9C0E4 544-642): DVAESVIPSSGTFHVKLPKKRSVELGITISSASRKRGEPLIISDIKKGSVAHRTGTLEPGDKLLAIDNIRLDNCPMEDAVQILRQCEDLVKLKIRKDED
row,Binder,pKd
1,B1,below the threshold
2,B2,below the threshold

# Biological target: HTRA1, Q92743
# Assay: holdup assay
# Design: key: below the threshold = too weak to quantify, mostly under pKd 3.1 to 4
# Conditions: plain residues with an end cap or a label only (N-terminal biotin on a linker: ado-ado)
# Chain of HTRA1, Q92743 (Q92743 360-477): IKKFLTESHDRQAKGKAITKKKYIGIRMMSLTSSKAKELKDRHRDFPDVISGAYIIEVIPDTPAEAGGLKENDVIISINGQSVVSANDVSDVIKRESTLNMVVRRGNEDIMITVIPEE
row,Binder,pKd
1,B1,below the threshold
2,B2,5.01

# Biological target: DLG4_1, P78352
# Assay: holdup assay
# Design: key: below the threshold = too weak to quantify, mostly under pKd 3.1 to 4
# Conditions: plain residues with an end cap or a label only (N-terminal biotin on a linker: ado-ado)
# Chain of DLG4_1, P78352 (P78352 62-152): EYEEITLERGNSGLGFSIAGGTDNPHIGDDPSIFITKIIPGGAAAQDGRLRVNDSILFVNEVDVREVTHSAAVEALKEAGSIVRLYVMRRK
row,Binder,pKd
1,B1,3.85
2,B2,below the threshold

# Biological target: T10, LNX2_2, Q8N448
# Assay: holdup assay
# Design: key: below the threshold = too weak to quantify, mostly under pKd 3.1 to 4
# Conditions: plain residues with an end cap or a label only (N-terminal biotin on a linker: ado-ado)
row,Binder,pKd
1,B1,below the threshold
2,B2,below the threshold

# Biological target: AHNAK1, Q09666
# Assay: holdup assay
# Design: key: below the threshold = too weak to quantify, mostly under pKd 3.1 to 4
# Conditions: plain residues with an end cap or a label only (N-terminal biotin on a linker: ado-ado)
# Chain of AHNAK1, Q09666 (Q09666 4-100): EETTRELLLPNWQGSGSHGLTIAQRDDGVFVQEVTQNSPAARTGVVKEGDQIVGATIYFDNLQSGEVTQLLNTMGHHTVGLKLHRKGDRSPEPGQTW
row,Binder,pKd
1,B1,below the threshold
2,B2,below the threshold

# Biological target: SNX27, Q96L92
# Assay: holdup assay
# Design: key: below the threshold = too weak to quantify, mostly under pKd 3.1 to 4
# Conditions: plain residues with an end cap or a label only (N-terminal biotin on a linker: ado-ado)
row,Binder,pKd
1,B1,3.89
2,B2,4.58

# Biological target: T11, APBA1_2, Q02410
# Assay: holdup assay
# Design: key: below the threshold = too weak to quantify, mostly under pKd 3.1 to 4
# Conditions: plain residues with an end cap or a label only (N-terminal biotin on a linker: ado-ado)
row,Binder,pKd
1,B1,3.64
2,B2,3.75

# Biological target: T12, APBA1_1, Q02410
# Assay: holdup assay
# Design: key: below the threshold = too weak to quantify, mostly under pKd 3.1 to 4
# Conditions: plain residues with an end cap or a label only (N-terminal biotin on a linker: ado-ado)
row,Binder,pKd
1,B1,below the threshold
2,B2,3.72
